Experimental data taken from the DeepSol protein solubility set.

Assay: soluble on expression in E. coli; label from the status in PepcDB or PDB records

Row | Sequence | soluble on expression in E. coli
1 | MGCKISTEFCSDNPVGSISTSKVHPTDLSTPSYAIKPVEFYEEPLKDDQLFYKVALAKKEYREKEKDKKEQLSSNRRVSLQVEPNKLPIPLTRSSSLSSIMENRPPSGISNSSFIRSRNTASRRFTIDTSRAKSNQYVVSLCSKKIGIIEYPDGRSDKQPCDVYWHNVVLSDMNKIVTSPQSRVNKFPGMTELAKKISLTHSISSMQKLFPDEYAFYPNSWFLPAHLADFHAFYRKAQALGKTEMWFIVKPDEGAQGTGIYLINSPNQIRNVDQRQLVQEYVADPLLMNDKLKFDFRVYGVIKSINPLSIYVAREGMARFCTEKYEKPDSSNFKNLYAHLTNYSLNKANEAYVHSNTLQDQTRGSKRLLSTVFHQLESRGVKTKRLWHDIKLILVKTTLAMLPEIMLHYEHHFYDSTGPQCFQIMGFDVMIREDGTPILLEVNAAPSLTADHIVPHPGRTLLEGGQRVRSIVDEVIKIPLVRDTLLLVLGLMEEEYQNNSLKGETKSLDDMQTIKQRRKPHLSEIFPTRYGAHSGHLLFLDKAMYIYMQFVQLRSNVNITNAGLKQFVRKCNLIDIIPVVHVDAKVSEINYYFTGEKRTNGNGLPFHAFLMFLFFIAEKKFVLENDLLSKVQRLLSFCDMSLRRYGVRSARLRRAEVDSTIGNVEIYMLPSRMARNRSGTNGRKQNFTDDNNNPNSFAHLPKINERL | not soluble
2 | MGCMKSKETFPFPTTLDIDKLHESEEAFIPDDSSQYRTPSPGEQQQVQEVKKLPEPGAVIGALILEFADRLASEIVEDALQQWACENIQYYNIPYIESEGSDTTIN | soluble
3 | MGCSHSKNKNSKSKSAILKKEHPLERSIHHNRVAHFDETQPTSQSTSVESEELNVKHYSKTLLNDTVEPTHQKTSAHVPEKSIKKQEVKQEVKKHETTTVVHTNVHVPKPTHKLPQASEIPIERMGSDPHTAIAPTYQQKQFATSTYYPMPTIGEKQKSPEKAKPARKVDNTDEKKRKKDQNEKPVINGPNVRHQLTPEDLEYIKRSVQQRNERRAFMMAHRNETDDTLYELEVRMPEKDYTNRMEVGQNYRVC | not soluble
4 | MGDCDIEGKDGKQYESVLMVSIDQLLDSMKEIGSNCLNNEFNFFKRHICDANKEGMFLFRAARKLRQFLKMNSTGDFDLHLLKVSEGTTILLNCTGQVKGRKPAALGAAQPTKSLEENKSLKEQKKLNDLCFLKRLLQEIKTCWNKILMGTKEH | soluble
5 | MGDDLDSLTDQLSSGFQVDPLALGEHPRYSQYKNLTKAAEQQAKRREETLERQKNGRFDTFMKLRNLAFDDVTSDEDDEQKIETTTAEKHTGKFKKYADKMMLSEWLVDIPESLSSDWTMVMAPVGKRTLVVASRGFTVAYNKGGREVSRFQSRLPGGNTRAKNQAWTILDCIYSNQTYYVLDLLSWNAHEYVESPYDFRQFMLKSKLEEAPELAKSTPGFRNIFSPIPSCPCSQDQMAELMKNEISFRLDGLLFYHNSVVYQPGQSPLVGWLKPWMLPEILNVPVPEKYKAESNGQSSSQFIESFNQKHKHQSKIDRSMEH | not soluble
6 | MGDVSKLSSNQVKLLETAFRDFETPEGSGRVSTDQIGIILEVLGIQQTKSTIRQLIDEFDPFGNGDIDFDSFKIIGARFLGEEVNPEQMQQELREAFRLYDKEGNGYISTDVMREILAELDETLSSEDLDAMIDEIDADGSGTVDFEEFMGVMTGGDE | soluble
7 | MGDYDYLIKFLALGDSGVGKTSFLHRYTDNTFTGQFISTVGIDFKEKKVVYKSSRGGFGGRGQRVLLQLWDTAGQERFRSLTTAFFRDAMGFILIFDITNEQSFLNIRDWLSQLKVHAYCEQPDIIICGNKADLENRRQVSTARAKQLADQLGLPYFETSACTSTNVEKSVDCLLDLVMQRIQQSVETSSLPLSECRGVSLDGDPSAASSYCANC | not soluble
8 | MGENSLWNVYKTVSFWKVMKNFIIIQIARYTPCLSVKNWLYRTFLRMKVGKKTSFALMVMPDIMFPEKITVGENSIIGYNTTLLAHEYLIREYRLGEIVIGNEVMIGANVTILPGVKIGDGATVSAGTLVHRDVPSGAFVGGNPMRIIYTLEHHHHHH | soluble
9 | MGEQDPSDRLRGDQLKEPNQNGKGSFSQFSSSVRAMVRIRMKYQAIKKRRMEIASATPQIFTSPRSTSPKVFTFDNLHEPVNSNPASPRKRKKKRKGRVLYPTSSLRAVPTKESSRAKNCLYLLCIIVFLQVYNAIENLDDHVLKYDLEGLEKTLKREVFGQQEVAEGLLGHLQDYLSTYVHNKPLVLSFHGPTGVGKSHVGRLLAQHFRSVVGEELVMQYFVLHHCPTDDDIPVCTKSLESHISEMVSQGEEEEKIPVFIFDEVEHMPRQLMDTLRELIQPQNSNKYLNAIYILISNLGHEDITKFVLHNSSIAISGRLSLTQELTPWLRNYLQEHHGLFLDAEYLPFMLLEKSHVMDCFIDEMSREGFYPDRSHVERLAEELSYYIVGEREFSHTGCRQVVAKVNLL | soluble
10 | MGFDFLGFTVRQFPVGKYHSGKSSSGKLLGYKTLITPSKAKLKIHAQKIGKLIDEHKAVPQSDLIAHLNPVIRGWTNYYSCVVSKRIFNQADTTLFSQLKAWAEHRHPNKSSRWSCQKYWQTVGSDNWVFKPHNQKIRLLKHRETRLEHHHHHH | soluble
11 | MGFFDRLKAGLAKTRERLLKAIPWGGNLEEVLEELEMALLAADVGLSATEEILQEVRASGRKDLKEAVKEKLVGMLEPDERRATLRKLGFNPQKPKPVEPKGRVVLVVGVNGVGKTTTIAKLGRYYQNLGKKVMFCAGDTFRAAGGTQLSEWGKRLSIPVIQGPEGTDPAALAYDAVQAMKARGYDLLFVDTAGRLHTKHNLMEELKKVKRAIAKADPEEPKEVWLVLDAVTGQNGLEQAKKFHEAVGLTGVIVTKLDGTAKGGVLIPIVRTLKVPIKFVGVGEGPDDLQPFDPEAFVEALLED | soluble
12 | MGFFSSLSSLFGLGKKDVNIVVVGLDNSGKTTILNQLKTPETRSQQIVPTVGHVVTNFSTQNLSFHAFDMAGQMKYRSTWESYFHSSQGVIFVLDSSDRLRMELLKDELMMVMEHKDVVSRGIPIVILANKMDIPGAMTASDITVALGLNLYRSGTWSIHSTCALTGDGLDKAMQQLSAEITKYMESRRT | not soluble
13 | MGFHLRGNNDFAFKRLYINLPQNSQMRAQLRRLIDNGSDTVVVSDKQDADAFLDVLSENRVKTISSLTPQGVVREYRITYRFSFQLRDAHDNLLIPPSEITLFRDLSYNETQVLAKDYEEAALYRDMQGDIVNQLVRRLASVRLPSLEHHHHHH | soluble
14 | MGFHLRNSLALPPDTPAVKVQSAVQYSELAKLLRRGLKASGATLADEDAKTGFAQVQVLSERWGDLPIAIDSQGRAQEYSLRYAAIFTVTTANGAVLVPQQVIELSRDYVSPPVDATGTATEREILADELRKDMSASILRRIDSVVRARLKHGESLESTPTAPLPPAPVQPTTLPESSVPAALPPAPTSGNLEHHHHHH | not soluble
15 | MGGRSAQPRRFSFACRILHPAVAHDAMAGSRYILRAPASIIRLAQHGWLHCCLHFFLFPAMNDVCFVAKGSALYLFTVEIIVFGSPSLRHNVLSFFYFALPWFKRQCRLKVNFNRLKEIRGIAQVVRKAFFISKTLPCI | soluble
16 | MGGSHHHHHHGMASALAAVDIRDNLLGISWVDSSWIPILNSGSVLDYFSERSNPFYDRTCNNEVVKMQRLTLEHLNQMVGIEYILLHAQEPILFIIRKQQRQSPAQVIPLADYYIIAGVIYQAPDLGSVINSRVLTAVHGIQSAFDEAMSYCRYHPSKGYWWHFKDHEEQDKVRPKAKRKEEPSSIFQRQRVDALLLDLRQKFPPKFVQLKPGEKPVPVDQTKKEAEPIPETVKPEEKETTKNVQQTVSAKGPPEKRMRLQ | not soluble
17 | MGGSHHHHHHGMASALELLSPQSPFRVDRGEHLPFLVKGARYTLVPAGQEGGGQTWRPLPGTTSPEDSSHLHRGQKKGAALGMAVYPYNCQAHAP | not soluble
18 | MGHHHHHHGGHMSLETKHSNRARSRKGALRGAVLAGALMALVGCQTSPAATTSSNTGGTNMQLQLTQEWDKTFPLSAKVEHRKVTFANRYGITLAADLYLPKNRGGDRLPAIVIGGPFGAVKEQSSGLYAQTMAERGFVTLAFDPSYTGESGGQPRNVASPDINTEDFSAAVDFISLLPEVNRERIGVIGICGWGGMALNAVAVDKRVKAVVTSTMYDMTRVMSKGYNDSVTLEQRTRTLEQLGQQRWKDAESGTPAYQPPYNELKGGEAQFLVDYHDYYMTPRGYHPRAVNSGNAWTMTTPLSFMNMPILTYIKEISPRPILLIHGERAHSRYFSETAYAAAAEPKELLIVPGASHVDLYDRLDRIPFDRIAGFFDEHLEGGS | soluble
19 | MGHHHHHHGGHMSLPNFFTPEFGPLRGVRVITTGSIIAGPTAGTILADLGAEVIHVERPKVGDTLRVVPPYFEADGKRIGGEFVCVTRNKLSVALDIKSEEGRKIFYELLKHADIFIENLVWLEERYGITDKDMLEANPRLVIVHVSGFGRSEFGGEDEKCGRGSYDIISQAYSGWCKLAAPPGMEVHRLPLYIGDYVTALFGVIGALSAYVYAKETGRGQVVDVAQFEAIARVIEMYYTMYHNLGINREGEGLRVFNTQPYGLYRVKDGWIAIGAIGPGLYQRFIQALAKATGINPADYPYEECAASPEAVNSEKGRELDRIFNEYLMSHTKEEVEKLFNAFRVPCSRVSTPEDVVRDRHWIERGDIIEVLDETTGRLVKQVGIVPKFSETPGRIWRGPPKLGSDTKKVLKGLLNLSDEQIDELKAKGVVDFEGGS | soluble
20 | MGHHHHHHGGHMSLTVPDFQAFMRPMLEQISSGEPQKIAELYRRLAEFFALTPQDTEELLPSGKQAKYHNRILWAKFHLDRAGVLTTPSRGVVQITPLGREFLSRYPEHIGMRELQTIPAYAEFTRRSRSPAQSPAPAAPPQAECSASVPPAEQIDALYAELTANLAEELLAQVKELSPAQFERLVVEVLVAMGYGGSVRDAGQALGRSGDNGIDGLIKQDPLGLDRIYLQAKRWKNTVHSPEIRTFSGSLTYHKATKGVFITTSGFSDGAKATAGQIGNIILLDGETLAHLMIEYGVGVLTRETYQIRRLDADYFEELEGGS | soluble
21 | MGHHHHHHSHDGSLVHISISPYPAILHEYVSSSKWEDAVRLCRFVKEQTMWACLAAMAVANRDMTTAEIAYAAIGEIDKVQYINSIKNLPSKESKMAHILLFSGNIQEAEIVLLQAGLVYQAIQININLYNWERALELAVKYKTHVDTVLAYRQKFLETFGKQETNKRYLHYAEGLQIDWEKIKAKIEMEITKEREQSSSSQSSKSIGLKP | not soluble
22 | MGHHHHHHSHFLSSSTYPEIHGFLHAKEQGKKSWKKIYFFLRRSGLYFSTKGTSKEPRHLQFFSEFGNSDIYVSLAGKKKHGAPTNYGFCFKPNKAGGPRDLKMLCAEEEQSRTCWVTAIRLLKYGMQLYQNYMHPYQGRSGCSSQSI | not soluble
23 | MGHHHHHHSHGGCRELRSTKYISDGQCTSISPLKELVCAGECLLLPVLPNWIGGGYGTKYWSRRSSQEWRCVNDKTRTQRIQLQCQDGSTRTYKITVVTACKCKRYTRQHNESSHNFESMSPAKPVQHHRERKRASKSSKHSMS | not soluble
24 | MGHHHHHHSHLEGPDCCFKSTVAAKLSKELKYPIIKGSSFELAKSGNEKLFEHFNKLADEDNVIIDRFVYSNLVYAKKFKDYSILTERQLRFIEDKIKAKAKVVYLHADPSVIKKRLRVRGDEYIEGKDIDSILELYREVMSNAGLHTYSWDTGQWSSDEIAKDI | not soluble
25 | MGHHHHHHSHLPAIRTLQSLAFHPNVTFIIGENGTGKSTLLEGIAIALGFNAEGGTKNFRFSTNDSHSSLHEYLRISKSFNTPSDGFFLRAESFYNVASYIDEIDADLEARGNPVIDSYGGISLHEQSHGESFFSLFMNRFSGQGLYILDEPEAALSPMRQLSMLIRMHELAEQGSQFVIATHSPILMAYPESTIYSLTQEG | not soluble
